In US20240417707:

Columns and labels:
Experiment in all cases: cell_activity
[1] = tested on: Nme2-ABE8e-i1 (Neisseria meningitidis)
[2] = tested on: Nme2-ABE8e-i1 V106W V106W (in TadA8e) (Neisseria meningitidis)
[3] = tested on: Nme2-ABE8e-nt (Neisseria meningitidis)
[4] = up to, off-target A-to-G, mouse liver
[5] = A6 editing, mouse liver in vivo, N4CC PAM

| Substance | activity [1, 4] [%] | activity [2, 4] [%] | activity ([3]; off-target A-to-G, mouse liver) [%] | activity [1, 5] [%] | activity [2, 5] [%] | activity [3, 5] [%] |
| --- | --- | --- | --- | --- | --- | --- |
| Rosa26 sgRNA ; Rosa26-OT1 off-target | 7 | 5 | 0.2 |  |  |  |
| Rosa26 sgRNA ; Rosa26 target |  |  |  | 49 | 46 | 34 |
